In paper PMC4963197 (2016):
Square brackets hold non-standard residues; d marks the D form. Ends that are not written are not given here. pS = N[C@@H](COP(=O)(O)O)C(=O)O

Experiments:
G-actin [1] = target: T1, G-actin (UniProt P68135 1-377); experiment: FP; LatB-actin
G-actin [2] = target: T1, G-actin; experiment: FP; LatB-actin; phospho-S98

Binder	Kd (G-actin [1]) [nM]	Kd (G-actin [2]) [nM]
{FAM}-PNLPPLSERKNVLQLKLQQRRTREELVSQGIMPPLKSPAAFHE [FAM-MRTF-A(62–104)]	1050	
{FAM}-PNLPPLSERKNVLQLKLQQRRTREELVSQGIMPPLKDPAAFHE [FAM-MRTF-A(62–104) S98D]	930	
{FAM}-PNLPPLSERKNVLQLKLQQRRTREELVSQGIMPPLK[pS]PAAFHE [FAM-MRTF-A(62–104) phosphorylated at S98]		850

Results, then the binder that gave them:

Kd (G-actin [1]) [nM]	Kd (G-actin [2]) [nM]	Binder
1120		{FAM}-LSERKNVLQLKLQQRRTREELVSQGIMPPLKS [FAM-MRTF-A(67–98)]
	630	{FAM}-LSERKNVLQLKLQQRRTREELVSQGIMPPLK[pS] [FAM-MRTF-A(67–98) phosphorylated at S98]
